In PMC11459929, “Novel humanized anti-PcrV monoclonal antibody COT-143 protects mice from lethal Pseudomonas aeruginosa infection via inhibition of toxin translocation by the type III secretion system” (Antimicrobial Agents and Chemotherapy, 2024):

Biological target: T1, PcrV (130–263) (Pseudomonas aeruginosa, UniProt G3XD49)
T1 construct: PcrV, type III secretion system needle-tip protein of Pseudomonas aeruginosa, residues 130Ala-263Asn; also called recombinant PcrV (130–263); partial PcrV (130–263); source: E. coli, purified (Profinity eXact Fusion-Tag system, Superdex75)
Experiment: crystal structure; h1F3 Fab and PcrV (130-263) mixed at a molar ratio of 1:2 in TBS with 0.5 mM TCEP at 4°C overnight, equimolar complex separated by Superdex200; crystals by sitting drop in 0.1 M acetate-Na pH 5.6, 24% PEG3350, 0.125 M CaCl2 at 20°C
Settings: both partners purified

B1: h1F3 Fab (Fab, V domains shown)
VH: QVQLVQSGAEVKKPGASVKVSCKASGYSFTSYWMHWVRQAPGQGLEWMGEINPSNGRTNYNEKFNTRVTMTRDTSTSTVYMELSSLRSEDTAVYYCVLYGNYVVYYTMDYWGQGTTVTVSS
VL: DIQLTQSPSFLSASVGDRVTITCSASTSVSYMEWYQQKPGKAPKLLIYTTSKLASGVPSRFSGSGSGTEFTLTISSLQPEDFATYYCHQWRNYPFTFGQGTKLEIK
notes: Fab part of the heavy chain of h1F3 (humanized from mouse m1F3 by CDR grafting with H93 and H94 back-mutation, human IgG4Pro format); light chain of h1F3 (has the mouse residue Ala at L128); also called Fab fragment of h1F3; pre-optimized COT-143 (Fab); source: papain digestion of h1F3, purified (HiTrap Protein A flow-through, Mono S, Superdex200)
B1: binds.
